Experimental data reported in the DeepSol protein solubility set.

Experiment: soluble on expression in E. coli; label from the status in PepcDB or PDB records

Sequence	soluble on expression in E. coli
MLSAFTPRPLKRLFTANQCWTSFLDAGGLRDIEVEAVTKMLACGTRILGVKEYICDKPECPHVRYVTNSCGSRACPSCGKKATDLWIATQLNRLPDCDWVHLVFTLPDTQWPVFESNRWLLNDVCRLAVENLLYAARKRGQEPGIFCAIHTYGRRLNWHPHVHVSVTCGGLNKHGQWKKLSFLKDAMRSRWMWNMRQRLLKAWSEGLAMPESLSHITTESQRRSLVLKAGGKYWHVYMSKKTAGGRNTARYLGRYLKKPPIAASRLAHYNGGGA	not soluble
MLSFLQSFFKSLGYEDYFKPIAPSSPRFFTKYCNETQKKITIVIDSNNIIRPFVFDESNEREPLFVAHLGCSECMRWNRMYGENIAENNEPETDSEDETDYESETSDSELGQDSPNPNLSEALNNCIENFDQLVDEVVRHKDFHERSQLLRVLEECLGNMNSFLQNENLTVDDISTGACALLNETAEKLKQMFSSSGISGRKESSEGTNKDLIKFGELEIRGDEEEDDDDESYVEGEEEDSSDEDLDDEDQEGESSIEPRLSETFKKSEARESLSSKEAPVKDLVIYQKFRDEHEDLEESENEPRMSDEAEKLVEDKIIEESDEDSFDIIGRDEELDDDSNGKEEEELELDVTQEDSEDDEQFFSL	not soluble
MLSFTLRRAMSFTTRILKVRPESIQFVNDKPQISDNETLINLEIAAKELTTTHNAIGFPTETVYGLAGSALSDESVKSIYKAKNRPADNPLIVHISSIEQLKRKLINYEIPQVYLDLISHFWPGPLTILLPITKDSPISKLVTANQDTFAVRMPNHPVARALIAMSDTPIAAPSANASTRPSPTLAEHVYHDLNGKIPLILDGGACNVGVESTVIDGLVDPPMLLRPGGVSLEDIKRVGGKLWENIVVAKKTAGKLEPVKTPGMKYRHYSPTAKVVLFVNCGDGINAIENYLTNNKVDASTTKIALLKSKHFGEDHPHFIIKRLGTTGNEISHNLFKYLREVDEEDKVELIFVEGIDETNEGLAVMNRLSKAAMEVVNGGEA	soluble
MLSIIGQKTLTIMYWTLELASKLEDAPWPATKDELIDYAQRSGAPLEVIENLQEMEDEGEIYESIEDIWPDYPSKEDFFFNEEEY	not soluble
MLSIISKYLLIASYICSYLEPRYDASIFSRKTRIIQGRAAYGRRKKKEVNPRYLQPSLFAIERLLAIFQAIFPIQGKAESGSLSALREESLMKANIEVFQNLSELHTLKLIATTMNKNIDYLSPKVRWKVNVPWEIIKEISESVHFNISDYFSD	not soluble
MLSIKGKKWRNWTGNVEGTPHYTMYPESIQDVVEVVGLARKKGKKIRVVGSGHSFTPLVQTEEVLVSLDELKGIVNIDAEKMVAEVWAGTKLYDLGKLLEEKGYAQENLGDIDSQSIAGAISTGTHGTGITFGSLSTQVIEITAVLSNGESIVCSETENVEYWRAFQLSLGMLGIIVKIKLKVIPAYSLVYESEKQSLSTVMNKLEEYKKHRHFEFFVFPYSDEVQVKLTNETTNTGSDLKWHKLKVELLENRMFSLLSKGCKWFPSISKGVSRLSAKAVPNTKIIGPSYEVFATSRTVPFYEMEYSIPSKYMRTVVEEISNLIEKKKYKVHFPIECRYVKGDDIWLSPAYGRDSAYIAVHMYKGMKYAAYFGEVEKIFLKYEGRPHWGKMHTLSYEQLQDIYPEFHSFLQARKSLDELGMFFNPYAEKLFIPLFAGQLEHHHHHH	soluble
MLSKRIVTALNTAVKVQNAGIATTARGMAGASGSEVSKILEERILGTETGINLEETGKVLSIGDGIARVYGLKNIQAEEMVEFDSGIKGMAMNLDVDNVGVVVFGNDKVIREGDIVKRTGAIVDVPVGDGLLGRVVDALGNPIDGKGPIANARRSRVEVKAPGIIPRLSVREPMVTGVKAVDSLVPIGRGQRELIIGDRQTGKTAIAIDTIINQKRFNDAGDDKKKLFCIYVAVGQKRSTVAQIVKRLTDAGAMDYTIVVSATASDAAPLQFLAPYSGCAMGEHFRDNGKHALIIFDDLSKQAVAYRQMSLLLRRPPGREAYPGDVFYLHSRLLERAAKMNNSLGGGSLTALPVIETQAGDVSAYIPTNVISITDGQIFLETELFYKGVRPAINVGLSVSRVGSAAQTKAMKQVAGSMKLELAQYREVAAFAQFGSDLDASTQQLLNRGVRLTELLKQGQYVPMGIEEQVGVIYAGVKGYLDKVDPSAITKFEKEFLAHLRSSQQALLKTIREEGQISPQTDAQLKDVVVNFLATFKP	not soluble
MLSLDSRKIIHHHHHHHHHDIKDGGATTGEWIGQTDHDDSDNHHQHHHHHPWCSDEVLALLRFRSTVENWFPEFTWEHTSRKLAEVGFKRSPQECKEKFEEEERRYFNSNNNNNNNTNDHQHIGNYNNKGNNYRIFSEVEEFYHHGHDNEHVSSEVGDNQNKRTNLVEGKGNVGETVQDLMAEDKLRDQDQGQVEEASMENQRNSIEVGKVGNVEDDAKSSSSSSLMMIMKEKKRKKRKKEKERFGVLKGFCEGLVRNMIAQQEEMHKKLLEDMVKKEEEKIAREEAWKKQEIERVNKEVEIRAQEQAMASDRNTNIIKFISKFTDHDLDVVQNPTSPSQDSSSLALRKTQGRRKFQTSSSLLPQTLTPHNLLTIDKSLEPFSTKTLKPKNQNPKPPKSDDKSDLGKRWPKDEVLALINIRRSISNMNDDDHKDENSLSTSSKAVPLWERISKKMLEIGYKRSAKRCKEKWENINKYFRKTKDVNKKRPLDSRTCPYFHQLTALYSQPPTGTTATTATTATSARDLDTRPEENRVGSQDPDISVPMHVDGDGAGDKSNVQFSGFDLEF	soluble
MLSQKLFEEISAKISETIAASPAKDIEKNVRAMMASTFSKMDLVTREEFDVQQAVLARTREKLAALESRLARLESQAFPDEAAAKVEEQSELGHS	not soluble
MLTDQEKIDLVNALDFVVIEPHTQSIYVHNDEKTNGVLAKVLHTISVDEYIESFKKGSLIDIFPAAMQEAGAEGFKDGQFVIMPKKFYVDQCYAMSKEIERLTNLNNLHNIKPNTYQGLIHLEHHHHHH	soluble
MLTETEGRAAVKLARKTIEIFLSKGKSPRPDASGVELSPVFEEYRGVFVTLTEGGLLRGCIGHPYPDSTLKEAILDSAISAATRDPRFPTVEQDEMKNILVEVTILTQPEKINASPKELPDKVEIGKHGLIVKQGYCQGLLLPQVAPENDMDSIDFLSHTCMKAGLSPDAWVKGAEVYCFEGQIFKEKEPDGEVIEEKFLEHHHHHH	soluble
MLTIGGKSFQSRLLLGTGKYPSFDIQKEAVAVSESDILTFAVRRMNIFEASQPNFLEQLDLSKYTLLPNTAGASTAEEAVRIARLAKASGLCDMIKVEVIGCSRSLLPDPVETLKASEQLLEEGFIVLPYTSDDVVLARKLEELGVHAIMPGASPIGSGQGILNPLNLSFIIEQAKVPVIVDAGIGSPKDAAYAMELGADGVLLNTAVSGADDPVKMARAMKLAVEAGRLSYEAGRIPLKQYGTASSPGEGLP	soluble
MLTLSPPPAYLVTAANPAPSVAAAAPRALVFGGSGQIGERLLTRLLGRGWQVTAWSRAPRAARAGLIWRQGDLAAPAVAGESFEVIFSCGPLDHFAHWYETNAVSTPRIVAFGSTSVEVKEHSIDAAERDVAQRLANAEQALFSAAKARGAAATVLRPTLVYGAGRDRTLTQIAGLARRTGAFVLPANATGLRQPVHVDDLASAALAVVTQPATHQRSYAVGGGEVLAYTQMVERVLEALPRPARLYQVPPSLFGLALTTAQRLGRLRSLNTAALQRMRDDLVFDLEPARRDFGYAPRAFRPLPEELGIGELEHHHHHH	not soluble
MLVAAILVGCGRDAPPPAAPVALDKTFLADTAAWREARLKELRAPDGWTSLVGLHWLSLKAHYIGSSADSGIKLAVGPPKMGMVSTENNAVWFVPERGAALTLDGKPLTSRIRFQSDRDPQPTLIHFDDGKGVLSLIHRGDRYALRVKHADASSRTHFAGLDYWPLDASWRINARYVPNAVGKTIPIVDIVGISSEQPNAGAIEFERDGKTFRLETIGEPGRAMFVVFADRTSGHGSYPAGRFLDLDVPDASGHVMVDFNRAYNPPCAFTPFATCPLPPPENRIDLAVSAGEKAYKVPHLEHHHHHH	soluble
MLVLGDAHATTPGRRRALFAAYRAANESVAVQAGDLMYYDLPVQTYFIGGNNEDFDAIDALRNGRVESDDVANATLLNSTAATVDGRRVAGLTGNYAPTQFDKPRAVLRGDRRRHFVRSDVEAVMDLDDIDIFVAHEAPNGLPVEEDYDVGCQHIDDILDALQPSLCLVGHHHQHAECDYGDTHVVGLEPAWESYYVVDPDTLAVTRHDTPPALEHHHHHH	not soluble
MLVLYLVFKKFLFKPVMKVINAREDMIKQQFDDAKKSQEEADALKASYDEKLESAKTEADEIIVNARNRAQEEHEAALEKTRKETEVMLEKAKADIATEKEKATEAAQADIARLALIAARKIVKTGDAHDAGSSK	not soluble
MLVWEELREKALNKIYHDKEIGYLDPDILGFLLAFYRNRNDVYTQSSCSGRITIVDAEMPWDRKNSTIIFKNHLRITEQDLEDVLSKNQVRRLWLIVQGPIIHIYAKNIETGWDILKIAREAGFKHSGILATNQKGVLVELRTGIRMVHLLRESNTERVDKDKIKTLVNVCNEVLARGKQKMNLLKDLLSSSSNNSMELGKNSKLKTPI	soluble
MLWHAMPPELNTARLMAGAGPAPMLAAAAGWQTLSAALDAQAVELTARLNSLGEAWTGGGSDKALAAATPMVVWLQTASTQAKTRAMQATAQAAAYTQAMATTPSLPEIAANHITQAVLTATNFFGINTIPIALTEMDYFIRMWNQAALAMEVYQAETAVNTLFEKLEPMASILDPGASQSTTNPIFGMPSPGSSTPVGQLPPAATQTLGQLGEMSGPMQQLTQPLQQVTSLFSQVGGTGGGNPADEEAAQMGLLGTSPLSNHPLAGGSGPSAGAGLLRAESLPGAGGSLTRTPLMSQLIEKPVAPSVMPAAAAGSSATGGAAPVGAGAMGQGAQSGGSTRPGLVAPAPLAQEREEDDEDDWDEEDDW	soluble
MLYKIYSYLGWRIDMKTENLPQAGQEAQIDKKIHFIWVGHIMPQKNIQVVSEWAEKNPGYETIIWVDKKIAPAKELDLFILDMKSKGITVKDINEEGVCRDSIRHELDQESPNYGMVSDMLRLNILAAEGGIYLDSDILCSAPFPDEIYAPFGFLLSPWSQGANNTLCNDIILCSKGNQIIQQLADAIEQSYIARDSFEFTHEYASMKETKGERIAKTLGVTGPGFLFHQLKKMGILNDKSEMEAIHWELQDQRYLIDGSVKEPDYFYVPQNNTNDASWVPSIKRPGIENMSFQERLENAVQLIAFDIQKTGLFNLDHYANELKVKQNSWCIAAETSPELKPDSYLLIRPRDKTGEWTLYYVDEDKKLNPVTLPVIKGAIKLSEVSDPLRKFHTLLSQVSDPVNPTAHELKQIGRALIELKPRQDEWHCKNKWSGAEEIAQELWQRITSNETLRAQIKQCFTQFESLKPRVAELGLTRASGAGTEVEAHESTVKEQEIISQNTVGEEGTKEKNSVQLASENSSDEKIKTAHDLIDEIIQDVIQLDGKLGLLGGNTRQLEDGRVINIPNGAAMIFDDYKKYKQGELTAESALESMIKIAKLSNQLNRHTFFNQRQPETGQFYKKVAAIDLQTTIAAEYDNNHGLRILEHHHHHH	not soluble
MLYLNQKPEYSKYDIGDYTYSKVGPTIFSWNDETKLKIGKFCSLGEEVVFLLGGEHRADWITTYPFNALFGEGAHITGHPSSKGDIVVGNDVWIGYQSCISSGVTIGNGAIIGARSVITKDVPPYAIVAGNPAKFVRYRFPQETIDKLESLAWWDWDISVIKGAIPLLLSNKIDEFFTSPEKEST	not soluble
MLYLTQRLEIPAAATASVTLPIDVRVKSRVKVTLNDGRDAGLLLPRGLLLRGGDVLSNEEGTDFVQVIAADEEVSVVRCDDPFMLAKACYALGNRHVPLQIMPGELRYHHDHVLDDMLRQFGLTVTFGQLPFEPEAGAYASES	soluble
